Source: publication PMC13079917 (2026)
“And” between values parts separate entries of the source, which are not always exact repeats. Identical values can stand only once. Like-named read-outs stand apart in the source and are kept apart here.

B1: L9 Fab (Fab, V domains shown)
VH: QVKLVESGGGVVQPGRSLRLSCEASGFIFSTYGMHWVRQAPGKGLEWVAVIWFDGSNIYYADSVKGRFTISRDNSKNTVFMQMDSLRAEDTAVYYCHRNFYDGSGPFDYWGQGTLVTVSS
VL: DIQMTQSPSTLSASVGDRVTITCRASQFISRWLAWYQQKPGKAPKLLIYKASSLESGVPSRFSGSGSETHFTLTISSLQPDDVATYYCQEYTSYGRTFGQGTKVEIK

Legend:
Test in all cases: SPR
SES-1 [1] = biological target: SES-1
SES-1 [2] = biological target: SES-1; remark: listed apart in the source
L9 Fab [3] = biological target: B1
L9 Fab [4] = biological target: B1; remark: listed apart in the source

## B1
SES-1 [1]
  Kd: 78 nM
SES-1 [2]
  Kd: 78 nM and 84 nM

B2: SES-2 (single epitope scaffold 2) (designed binder)
chain: AVEDALKKAEAAGDEAAIARAEILLARVEEAREILANPNVDPAVGWALLAAVAPEIAALAGGSY
L9 Fab [3]
  Kd: 42 nM
L9 Fab [4]
  koff: 0.014 s⁻¹
